{
  "source": "paper PMC12262686",
  "about": "(bioRxiv, 2025)",
  "data": [
    {"target": "the molecule itself", "assay": "negative-stain TEM", "values": [
      {"protein": "SPOP D77E, full-length (natural protein) MSRVPSPPPPAEMSSGPVAESWCYTQIKVVKFSYMWTINNFSFCREEMGEVIKSSTFSSGANDKLKWCLRVNPKGLEEESKDYLSLYLLLVSCPKSEVRAKFKFSILNAKGEETKAMESQRAYRFVQGKDWGFKKFIRRDFLLDEANGLLPDDKLTLFCEVSVVQDSVNISGQNTMNMVKVPECRLADELGGLWENSRFTDCCLCVAGQEFQAHKAILAARSPVFSAMFEHEMEESKKNRVEINDVEPEVFKEMMCFIYTGKAPNLDKMADDLLAAADKYALERLKVMCEDALCSNLSVENAAEILILADLHSADQLKTQAVDFINYHASDVLETSGWKSMVVSHPHLVAEAYRSLASAQCPFLGPPRKRLKQS", "binding result": "binds"},
      {"protein": "SPOP D140N (natural protein) MSRVPSPPPPAEMSSGPVAESWCYTQIKVVKFSYMWTINNFSFCREEMGEVIKSSTFSSGANDKLKWCLRVNPKGLDEESKDYLSLYLLLVSCPKSEVRAKFKFSILNAKGEETKAMESQRAYRFVQGKDWGFKKFIRRNFLLDEANGLLPDDKLTLFCEVSVVQDSVNISGQNTMNMVKVPECRLADELGGLWENSRFTDCCLCVAGQEFQAHKAILAARSPVFSAMFEHEMEESKKNRVEINDVEPEVFKEMMCFIYTGKAPNLDKMADDLLAAADKYALERLKVMCEDALCSNLSVENAAEILILADLHSADQLKTQAVDFINYHASDVLETSGWKSMVVSHPHLVAEAYRSLASAQCPFLGPPRKRLKQS", "binding result": "binds"},
      {"protein": "SPOP M117V (natural protein) MSRVPSPPPPAEMSSGPVAESWCYTQIKVVKFSYMWTINNFSFCREEMGEVIKSSTFSSGANDKLKWCLRVNPKGLDEESKDYLSLYLLLVSCPKSEVRAKFKFSILNAKGEETKAVESQRAYRFVQGKDWGFKKFIRRDFLLDEANGLLPDDKLTLFCEVSVVQDSVNISGQNTMNMVKVPECRLADELGGLWENSRFTDCCLCVAGQEFQAHKAILAARSPVFSAMFEHEMEESKKNRVEINDVEPEVFKEMMCFIYTGKAPNLDKMADDLLAAADKYALERLKVMCEDALCSNLSVENAAEILILADLHSADQLKTQAVDFINYHASDVLETSGWKSMVVSHPHLVAEAYRSLASAQCPFLGPPRKRLKQS", "binding result": "binds"},
      {"protein": "SPOP E47A (natural protein) MSRVPSPPPPAEMSSGPVAESWCYTQIKVVKFSYMWTINNFSFCREAMGEVIKSSTFSSGANDKLKWCLRVNPKGLDEESKDYLSLYLLLVSCPKSEVRAKFKFSILNAKGEETKAMESQRAYRFVQGKDWGFKKFIRRDFLLDEANGLLPDDKLTLFCEVSVVQDSVNISGQNTMNMVKVPECRLADELGGLWENSRFTDCCLCVAGQEFQAHKAILAARSPVFSAMFEHEMEESKKNRVEINDVEPEVFKEMMCFIYTGKAPNLDKMADDLLAAADKYALERLKVMCEDALCSNLSVENAAEILILADLHSADQLKTQAVDFINYHASDVLETSGWKSMVVSHPHLVAEAYRSLASAQCPFLGPPRKRLKQS", "binding result": "binds"},
      {"protein": "SPOP Y87F (natural protein) MSRVPSPPPPAEMSSGPVAESWCYTQIKVVKFSYMWTINNFSFCREEMGEVIKSSTFSSGANDKLKWCLRVNPKGLDEESKDYLSLFLLLVSCPKSEVRAKFKFSILNAKGEETKAMESQRAYRFVQGKDWGFKKFIRRDFLLDEANGLLPDDKLTLFCEVSVVQDSVNISGQNTMNMVKVPECRLADELGGLWENSRFTDCCLCVAGQEFQAHKAILAARSPVFSAMFEHEMEESKKNRVEINDVEPEVFKEMMCFIYTGKAPNLDKMADDLLAAADKYALERLKVMCEDALCSNLSVENAAEILILADLHSADQLKTQAVDFINYHASDVLETSGWKSMVVSHPHLVAEAYRSLASAQCPFLGPPRKRLKQS", "binding result": "binds"},
      {"protein": "SPOP R45W (natural protein) MSRVPSPPPPAEMSSGPVAESWCYTQIKVVKFSYMWTINNFSFCWEEMGEVIKSSTFSSGANDKLKWCLRVNPKGLDEESKDYLSLYLLLVSCPKSEVRAKFKFSILNAKGEETKAMESQRAYRFVQGKDWGFKKFIRRDFLLDEANGLLPDDKLTLFCEVSVVQDSVNISGQNTMNMVKVPECRLADELGGLWENSRFTDCCLCVAGQEFQAHKAILAARSPVFSAMFEHEMEESKKNRVEINDVEPEVFKEMMCFIYTGKAPNLDKMADDLLAAADKYALERLKVMCEDALCSNLSVENAAEILILADLHSADQLKTQAVDFINYHASDVLETSGWKSMVVSHPHLVAEAYRSLASAQCPFLGPPRKRLKQS", "binding result": "binds"},
      {"protein": "SPOP R121Q (natural protein) MSRVPSPPPPAEMSSGPVAESWCYTQIKVVKFSYMWTINNFSFCREEMGEVIKSSTFSSGANDKLKWCLRVNPKGLDEESKDYLSLYLLLVSCPKSEVRAKFKFSILNAKGEETKAMESQQAYRFVQGKDWGFKKFIRRDFLLDEANGLLPDDKLTLFCEVSVVQDSVNISGQNTMNMVKVPECRLADELGGLWENSRFTDCCLCVAGQEFQAHKAILAARSPVFSAMFEHEMEESKKNRVEINDVEPEVFKEMMCFIYTGKAPNLDKMADDLLAAADKYALERLKVMCEDALCSNLSVENAAEILILADLHSADQLKTQAVDFINYHASDVLETSGWKSMVVSHPHLVAEAYRSLASAQCPFLGPPRKRLKQS", "binding result": "binds"},
      {"protein": "SPOP W131L (natural protein) MSRVPSPPPPAEMSSGPVAESWCYTQIKVVKFSYMWTINNFSFCREEMGEVIKSSTFSSGANDKLKWCLRVNPKGLDEESKDYLSLYLLLVSCPKSEVRAKFKFSILNAKGEETKAMESQRAYRFVQGKDLGFKKFIRRDFLLDEANGLLPDDKLTLFCEVSVVQDSVNISGQNTMNMVKVPECRLADELGGLWENSRFTDCCLCVAGQEFQAHKAILAARSPVFSAMFEHEMEESKKNRVEINDVEPEVFKEMMCFIYTGKAPNLDKMADDLLAAADKYALERLKVMCEDALCSNLSVENAAEILILADLHSADQLKTQAVDFINYHASDVLETSGWKSMVVSHPHLVAEAYRSLASAQCPFLGPPRKRLKQS", "binding result": "binds"},
      {"protein": "SPOP R99W (natural protein) MSRVPSPPPPAEMSSGPVAESWCYTQIKVVKFSYMWTINNFSFCREEMGEVIKSSTFSSGANDKLKWCLRVNPKGLDEESKDYLSLYLLLVSCPKSEVWAKFKFSILNAKGEETKAMESQRAYRFVQGKDWGFKKFIRRDFLLDEANGLLPDDKLTLFCEVSVVQDSVNISGQNTMNMVKVPECRLADELGGLWENSRFTDCCLCVAGQEFQAHKAILAARSPVFSAMFEHEMEESKKNRVEINDVEPEVFKEMMCFIYTGKAPNLDKMADDLLAAADKYALERLKVMCEDALCSNLSVENAAEILILADLHSADQLKTQAVDFINYHASDVLETSGWKSMVVSHPHLVAEAYRSLASAQCPFLGPPRKRLKQS", "binding result": "binds"},
      {"protein": "SPOP E50K (natural protein) MSRVPSPPPPAEMSSGPVAESWCYTQIKVVKFSYMWTINNFSFCREEMGKVIKSSTFSSGANDKLKWCLRVNPKGLDEESKDYLSLYLLLVSCPKSEVRAKFKFSILNAKGEETKAMESQRAYRFVQGKDWGFKKFIRRDFLLDEANGLLPDDKLTLFCEVSVVQDSVNISGQNTMNMVKVPECRLADELGGLWENSRFTDCCLCVAGQEFQAHKAILAARSPVFSAMFEHEMEESKKNRVEINDVEPEVFKEMMCFIYTGKAPNLDKMADDLLAAADKYALERLKVMCEDALCSNLSVENAAEILILADLHSADQLKTQAVDFINYHASDVLETSGWKSMVVSHPHLVAEAYRSLASAQCPFLGPPRKRLKQS", "binding result": "binds"},
      {"protein": "SPOP W131G (natural protein) MSRVPSPPPPAEMSSGPVAESWCYTQIKVVKFSYMWTINNFSFCREEMGEVIKSSTFSSGANDKLKWCLRVNPKGLDEESKDYLSLYLLLVSCPKSEVRAKFKFSILNAKGEETKAMESQRAYRFVQGKDGGFKKFIRRDFLLDEANGLLPDDKLTLFCEVSVVQDSVNISGQNTMNMVKVPECRLADELGGLWENSRFTDCCLCVAGQEFQAHKAILAARSPVFSAMFEHEMEESKKNRVEINDVEPEVFKEMMCFIYTGKAPNLDKMADDLLAAADKYALERLKVMCEDALCSNLSVENAAEILILADLHSADQLKTQAVDFINYHASDVLETSGWKSMVVSHPHLVAEAYRSLASAQCPFLGPPRKRLKQS", "binding result": "binds"},
      {"protein": "SPOP E78K, full-length (natural protein) MSRVPSPPPPAEMSSGPVAESWCYTQIKVVKFSYMWTINNFSFCREEMGEVIKSSTFSSGANDKLKWCLRVNPKGLDKESKDYLSLYLLLVSCPKSEVRAKFKFSILNAKGEETKAMESQRAYRFVQGKDWGFKKFIRRDFLLDEANGLLPDDKLTLFCEVSVVQDSVNISGQNTMNMVKVPECRLADELGGLWENSRFTDCCLCVAGQEFQAHKAILAARSPVFSAMFEHEMEESKKNRVEINDVEPEVFKEMMCFIYTGKAPNLDKMADDLLAAADKYALERLKVMCEDALCSNLSVENAAEILILADLHSADQLKTQAVDFINYHASDVLETSGWKSMVVSHPHLVAEAYRSLASAQCPFLGPPRKRLKQS", "binding result": "binds"},
      {"protein": "SPOP E47K, full-length (natural protein) MSRVPSPPPPAEMSSGPVAESWCYTQIKVVKFSYMWTINNFSFCREKMGEVIKSSTFSSGANDKLKWCLRVNPKGLDEESKDYLSLYLLLVSCPKSEVRAKFKFSILNAKGEETKAMESQRAYRFVQGKDWGFKKFIRRDFLLDEANGLLPDDKLTLFCEVSVVQDSVNISGQNTMNMVKVPECRLADELGGLWENSRFTDCCLCVAGQEFQAHKAILAARSPVFSAMFEHEMEESKKNRVEINDVEPEVFKEMMCFIYTGKAPNLDKMADDLLAAADKYALERLKVMCEDALCSNLSVENAAEILILADLHSADQLKTQAVDFINYHASDVLETSGWKSMVVSHPHLVAEAYRSLASAQCPFLGPPRKRLKQS", "binding result": "binds"},
      {"protein": "SPOP V51E, full-length (natural protein) MSRVPSPPPPAEMSSGPVAESWCYTQIKVVKFSYMWTINNFSFCREEMGEEIKSSTFSSGANDKLKWCLRVNPKGLDEESKDYLSLYLLLVSCPKSEVRAKFKFSILNAKGEETKAMESQRAYRFVQGKDWGFKKFIRRDFLLDEANGLLPDDKLTLFCEVSVVQDSVNISGQNTMNMVKVPECRLADELGGLWENSRFTDCCLCVAGQEFQAHKAILAARSPVFSAMFEHEMEESKKNRVEINDVEPEVFKEMMCFIYTGKAPNLDKMADDLLAAADKYALERLKVMCEDALCSNLSVENAAEILILADLHSADQLKTQAVDFINYHASDVLETSGWKSMVVSHPHLVAEAYRSLASAQCPFLGPPRKRLKQS", "binding result": "binds"},
      {"protein": "SPOP D130E (natural protein) MSRVPSPPPPAEMSSGPVAESWCYTQIKVVKFSYMWTINNFSFCREEMGEVIKSSTFSSGANDKLKWCLRVNPKGLDEESKDYLSLYLLLVSCPKSEVRAKFKFSILNAKGEETKAMESQRAYRFVQGKEWGFKKFIRRDFLLDEANGLLPDDKLTLFCEVSVVQDSVNISGQNTMNMVKVPECRLADELGGLWENSRFTDCCLCVAGQEFQAHKAILAARSPVFSAMFEHEMEESKKNRVEINDVEPEVFKEMMCFIYTGKAPNLDKMADDLLAAADKYALERLKVMCEDALCSNLSVENAAEILILADLHSADQLKTQAVDFINYHASDVLETSGWKSMVVSHPHLVAEAYRSLASAQCPFLGPPRKRLKQS", "binding result": "binds"}
    ]}
  ]
}
